# In US7144731B2, “SCF antibody compositions and methods of using the same” (Amgen Inc., priority 1989, dated 2006):
# B1: rrSCF^1-164: recombinant rat SCF^1-164 from E. coli, also used ^125I-labelled (protein)
# chain: QEICRNPVTDNVKDITKLVANLPNDYMITLNYVAGMDVLPSHCWLRDMVTHLSVSLTTLLDKFSNISEGLSNYSIIDKLGKIVDDLVACMEENAPKNVKESLKKPETRNFTPEEFFSIFNRSIDAFKDFMVASDTSDCVLSSTLGPEKDSRVSVTKPFMLPPVA
# Experiments:
# [1] = test system: human bone marrow; assay: Human bone marrow colony assay; format: cell-based
# How it was run: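 COS-1-expressed human SCF (aa 1–162), alone or with other growth factors, was tested on Ficoll-separated healthy human bone marrow. Cultures were grown in methylcellulose with 30% FCS and 20 U/ml EPO for 14 days at 7% O2. Colonies ≥0.2 mm were scored.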
# [2] = test system: Steel-Dickie (S1/S1^d) mice; assay: In vivo activity in Steel-Dickie mice; parameters: species or system mouse; settings: 100 μg/kg/day 30 days then 30 μg/kg/day 20 days, s.c.
# Description: Steel mice provide a sensitive in vivo model for SCF activity. Different recombinant SCF proteins were tested in Steel-Dickie (S1/S1^d) mice for varying lengths of time. Six to ten week old Steel mice (WCB6F1-S1/S1^d) were purchased from Jackson Labs, Bar Harbor, Me. Peripheral blood was monitored by a SYSMEX F-800 microcell counter (Baxter, Irvine, Calif.) for red cells, hemoglobin, and platelets. For enumeration of peripheral white blood cell (WBC) numbers, a Coulter Channelyzer 256 (Coulter Electronics, Marietta, Ga.) was used.
# In the experiment in FIG. 24, Steel-Dickie mice were treated with E. coli derived SCF^1-164, purified as in Example 10, at a dose of 100 μg/kg/day for 30 days, then at a dose of 30 μg/kg/day for an additional 20 days. The protein was formulated in injectable saline (Abbott Labs, North Chicago, Ill.) +0.1% fetal bovine serum. The injections were performed daily, subcutaneously. The peripheral blood was monitored via tail bleeds of ˜50 μl at the indicated times in FIG. 24. The blood was collected into 3% EDTA coated syringes and dispensed into powdered EDTA microfuge tubes (Brinkmann, Westbury, N.Y.). […]
# Whole blood was stained for T lymphocyte subsets as follows. […] Each sample of blood was then analyzed on a FACScan cell analysis system (Becton Dickinson, Mountain View, Calif.). […]
# [3] = test system: mouse bone marrow cells; assay: Pre-B cell colony formation in agar cultures; format: cell-based
# Source text: The ability of recombinant rat SCF^1-164 (rrSCF^1-164), to act synergistically with IL-7 to enhance lymphoid cell proliferation was studied in agar cultures of mouse bone marrow. In this assay, the colonies formed with rrSCF^1-164 alone contained monocytes, neutrophils, and blast-cells, while the colonies stimulated by IL-7 alone or in combination with rrSCF^1-164 contained primarily pre-B cells. Pre-B cells, characterized as B220^+, sIg^−, cμ^+, were identified by FACS analysis of pooled cells using fluorescence-labeled antibodies to the B220 antigen [Coffman, Immunol. Rev., 69, 5 (1982)] and to surface Ig (FITC-goat anti-K, Southern Biotechnology Assoc., Birmingham, Ala.); and by analysis of cytospin slides for cytoplasmic μ expression using fluorescence-labeled antibodies (TRITC-goat anti-μ, Southern Biotechnology Assoc.,). Recombinant human IL-7 (rhIL-7) was obtained from Biosource International (Westlake Village, Calif.). When rrSCF^1-164 was added in combination with the pre-B cell growth factor IL-7, a synergistic increase in colony formation was observed (Table 16), indicating a stimulatory role of rrSCF^1-164 on early B cell progenitors.
molecule,measurement,setting,value
B1,specific activity in proliferation of human bone marrow,[1],specific activity similar to that of human SCF^1-164
same,"macrocytic anemia (hematocrit, mean red cell volume)",[2],significant correction of the macrocytic anemia
same,Colony Number per 5 × 10^4 mouse bone marrow cells plated,[3]; 50 ng,4 ± 2
same,Colony Number per 5 × 10^4 mouse bone marrow cells plated,[3]; 100 ng,7 ± 4
same,Colony Number per 5 × 10^4 mouse bone marrow cells plated,"[3]; 200 ng, mean of triplicate dishes ± SD",13 ± 2
